± gives the standard deviation of the averaged measurements.
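Note: PSI is a weighted mean of sequencing reads over stability bins, variants kept only with over 10 reads, mCherry proximal and sfGFP distal, peptide attached via GGGS linker.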

In the series the test system is Saccharomyces cerevisiae. The series is described as follows: protein stability index of tFT-peptide fusion (C-terminal peptide) (PSI (0-1 scale)); higher = more stable (slower turnover). To be noted: genetic background: wild type; temperature: 30 C.
LVWFQYFRLWGG registered a protein stability index of 0.61 ± 0.029. In turn, LWENVVLVEGGK registered a protein stability index of 0.704 ± 0.069.

LWGEGAGPEDVG returned a protein stability index of 0.674 ± 0.011. The sequence LWGGAGAGYWVG gave a protein stability index of 0.727 ± 0.033. Then LWGVGWPLLGGL, with 0.691 ± 0.04; and LWISDSGSLYFS, with 0.739 ± 0.018; and LWKLLNTVKNAA, with 0.62 ± 0.01. LWLDKSREGSLG came in with a protein stability index of 0.701 ± 0.021. LWLSAPDRREPF showed a protein stability index of 0.684 ± 0.041. In the case of LWRRPASSLLPI, the protein stability index worked out at 0.701 ± 0.018. LWSDPGQILVEL had a protein stability index of 0.717 ± 0.015. Take LYPGYIVVANYK: the protein stability index worked out at 0.661 ± 0.032. Then LYPNPPLLPCSP, with 0.612 ± 0.046.

Take LYQEPLRNACFC: the protein stability index was determined as 0.683 ± 0.1. LYRRGTYFEGLI gave a protein stability index of 0.704 ± 0.012.

On to LYSGLASEIWYT, for which the protein stability index stood at 0.737 ± 0.045. LYSPSLRPPLLL showed a protein stability index of 0.855 ± 0.18. For the sequence LYSRSSRLFRPL, the protein stability index was 0.804 ± 0.042.

Turning to LYSTATLSLCSR, the protein stability index worked out at 0.707 ± 0.12. Then LYTNLIGFNSWI, with 0.713 ± 0.037. The same measure for LYVTYVPYTYAT: 0.665 ± 0.012; for MALAVRVVGCGA: 0.594 ± 0.014; for MDKIKKNYSQIG: 0.693 ± 0.036. Take MEAAGVGRVVWR: the protein stability index came out at 0.632 ± 0.056. The same measure for MEGNQTSVRGRT: 0.677 ± 0.083. With MESGKILGCCGI, the protein stability index was 0.684 ± 0.012. MGGDATSLKRLV yielded a protein stability index of 0.703 ± 0.0091. Consider MGGRDNLVQKEW, for which the protein stability index came out at 0.804 ± 0.091. Sequence MGYNSRHLDISM had a protein stability index of 0.677 ± 0.018. As to MIKAPGHKGTIN, the protein stability index turned out to be 0.684 ± 0.02. Consider MITRPASKYLVK, for which the protein stability index was determined as 0.6221 ± 0.0052. In turn, MIVSILRSRSFS registered a protein stability index of 0.557 ± 0.0066. MKNKSTEKNRKF gave a protein stability index of 0.72815 ± 0.00016. In turn, MKPPRGRIVITG displayed a protein stability index of 0.626 ± 0.02. MLGRLLDRCYDY displayed a protein stability index of 0.678 ± 0.029. On to MLHLNPVLHISG, for which the protein stability index was determined as 0.653 ± 0.041. The same measure for MLLLWRVPQCGE: 0.638 ± 0.055.

With MLMFSASAVWGG, the protein stability index came out at 0.556 ± 0.048. Then MLPPRRAPFPPP, with 0.735 ± 0.018; and MLYENNTAPLFI, with 0.635 ± 0.045. In the case of MPCPFSSASRAI, the protein stability index is 0.668 ± 0.036. MPENGSTKSWWK came in with a protein stability index of 0.696 ± 0.082. The sequence MPGSLPVSRVLL displayed a protein stability index of 0.74 ± 0.087. In turn, MQLWECKQSLCD showed a protein stability index of 0.696 ± 0.017.

As to MQQWSTKSPGVI, the protein stability index was 0.651 ± 0.027.

The sequence MREAQAFRCLYG returned a protein stability index of 0.636 ± 0.0019.

On to MSFFPCVFSGFG, for which the protein stability index is 0.738 ± 0.033.

The sequence MSGRGPYPYSPL displayed a protein stability index of 0.7465 ± 0.0034.

Consider MSKTIEREGNMI, for which the protein stability index was determined as 0.735 ± 0.034.

MSPSVFLPPLPL: the protein stability index came to 0.662 ± 0.09. As for MSRRSVFGAVFW, the protein stability index was determined as 0.663 ± 0.039. MSSTLCMLPFSV had a protein stability index of 0.771 ± 0.012. MTKNKFLTGSRL: the protein stability index amounted to 0.845 ± 0.22. In the case of MTYSVWENVLTW, the protein stability index is 0.733 ± 0.032. For the sequence MVDGFLRFDTKM, the protein stability index is 0.704 ± 0.13.

For MVELWQPASVFS, the protein stability index stood at 0.663 ± 0.033. The same measure for MVGASFAILGFI: 0.699 ± 0.014; for MWAEWLCHGDRN: 0.742 ± 0.068; for NAKGRKQTGKRK: 0.695 ± 0.035.

Take NAYRYFLNKQNR: the protein stability index was 0.697 ± 0.012. As to NCFIPPARVFPS, the protein stability index is 0.686 ± 0.028. In the case of NCFVTILLGMWK, the protein stability index was 0.513 ± 0.022. The same measure for NCKLAVSPRPLR: 0.692 ± 0.051. Turning to NELSPSQDLPSS, the protein stability index was determined as 0.671 ± 0.095.
